Test: First-order nonenzymatic deamidation of pentapeptides in Tris buffer
Assay type: physicochemical
Conditions: 0.15 M Tris HCl; for First-Order Deamidation Halftimes of GlyXxxAsnYyyGly: pH 7.4, 37.0° C., Asn pentapeptides; for First-Order Deamidation Halftimes of GlyXxxGlnYyyGly: pH 7.4, 37.0 ° C., Gln pentapeptides, 52 values measured, rest derived from surface fitting
Method in brief: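 Pentapeptides containing Asn or Gln in varied flanking sequences incubated at 37° C., pH 7.4, 0.15 M Tris buffer; first-order deamidation rates measured. Some Asn values estimated from remaining data; many Gln values derived from surface fitting rather than measured.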

| Substance | First-Order Deamidation Halftimes of GlyXxxAsnYyyGly [days] | First-Order Deamidation Halftimes of GlyXxxGlnYyyGly [days] |
| --- | --- | --- |
| GlyHisAsnAlaGly (GHNAG; printed: GlyHisAsnAlaGly) | 24.6 | – |
| GlyHisAsnAmCysGly | 33.8 | – |
| GlyHisAsnArgGly (GHNRG; printed: GlyHisAsnArgGly) | 48.9 | – |
| GlyHisAsnAspGly (GHNDG; printed: GlyHisAsnAspGly) | 31.2 | – |
| GlyHisAsnCysGly (GHNCG; printed: GlyHisAsnCysGly) | 43.9 | – |
| GlyHisAsnGluGly (GHNEG; printed: GlyHisAsnGluGly) | 69.4 | – |
| GlyHisAsnGlyGly (GHNGG; printed: GlyHisAsnGlyGly) | 1.14 | – |
| GlyHisAsnHisGly (GHNHG; printed: GlyHisAsnHisGly) | 10.7 | – |
| GlyHisAsnIleGly (GHNIG; printed: GlyHisAsnIleGly) | 327 | – |
| GlyHisAsnLeuGly (GHNLG; printed: GlyHisAsnLeuGly) | 116 | – |
| GlyHisAsnLysGly (GHNKG; printed: GlyHisAsnLysGly) | 50.2 | – |
| GlyHisAsnMetGly (GHNMG; printed: GlyHisAsnMetGly) | 63.1 | – |
| GlyHisAsnPheGly (GHNFG; printed: GlyHisAsnPheGly) | 72.1 | – |
| GlyHisAsnProGly (GHNPG; printed: GlyHisAsnProGly) | 8440 | – |
| GlyHisAsnSerGly (GHNSG; printed: GlyHisAsnSerGly) | 15.7 | – |
| GlyHisAsnThrGly (GHNTG; printed: GlyHisAsnThrGly) | 47.2 | – |
| GlyHisAsnTrpGly (GHNWG; printed: GlyHisAsnTrpGly) | 95.4 | – |
| GlyHisAsnTyrGly (GHNYG; printed: GlyHisAsnTyrGly) | 82.3 | – |
| GlyHisAsnValGly (GHNVG; printed: GlyHisAsnValGly) | 247 | – |
| GlyHisGlnAlaGly (GHQAG; printed: GlyHisGlnAlaGly) | – | 7200 |
| GlyHisGlnArgGly (GHQRG; printed: GlyHisGlnArgGly) | – | 4500 |
| GlyHisGlnAspGly (GHQDG; printed: GlyHisGlnAspGly) | – | 5600 |
| GlyHisGlnCysGly (GHQCG; printed: GlyHisGlnCysGly) | – | 2200 |
| GlyHisGlnGluGly (GHQEG; printed: GlyHisGlnGluGly) | – | 5800 |
| GlyHisGlnGlyGly (GHQGG; printed: GlyHisGlnGlyGly) | – | 850 |

| Substance | First-Order Deamidation Halftimes of GlyXxxAsnYyyGly [days] | First-Order Deamidation Halftimes of GlyXxxGlnYyyGly [days] |
| --- | --- | --- |
| GlyHisGlnHisGly (GHQHG; printed: GlyHisGlnHisGly) | – | 7200 |
| GlyHisGlnIleGly (GHQIG; printed: GlyHisGlnIleGly) | – | 6700 |
| GlyHisGlnLeuGly (GHQLG; printed: GlyHisGlnLeuGly) | – | 6600 |
| GlyHisGlnLysGly (GHQKG; printed: GlyHisGlnLysGly) | – | 4000 |
| GlyHisGlnMetGly (GHQMG; printed: GlyHisGlnMetGly) | – | 5200 |
| GlyHisGlnPheGly (GHQFG; printed: GlyHisGlnPheGly) | – | 8600 |
| GlyHisGlnProGly (GHQPG; printed: GlyHisGlnProGly) | – | 11000 |
| GlyHisGlnSerGly (GHQSG; printed: GlyHisGlnSerGly) | – | 6300 |
| GlyHisGlnThrGly (GHQTG; printed: GlyHisGlnThrGly) | – | 5500 |
| GlyHisGlnTrpGly (GHQWG; printed: GlyHisGlnTrpGly) | – | 18000 |
| GlyHisGlnTyrGly (GHQYG; printed: GlyHisGlnTyrGly) | – | 14000 |
| GlyHisGlnValGly (GHQVG; printed: GlyHisGlnValGly) | – | 6800 |
| GlyIleAsnAlaGly (GINAG; printed: GlyIleAsnAlaGly) | 25.9 | – |
| GlyIleAsnAmCysGly | 33.0 | – |
| GlyIleAsnArgGly (GINRG; printed: GlyIleAsnArgGly) | 66.4 | – |
| GlyIleAsnAspGly (GINDG; printed: GlyIleAsnAspGly) | 33.8 | – |
| GlyIleAsnCysGly (GINCG; printed: GlyIleAsnCysGly) | 52.7 | – |
| GlyIleAsnGluGly (GINEG; printed: GlyIleAsnGluGly) | 58.6 | – |
| GlyIleAsnGlyGly (GINGG; printed: GlyIleAsnGlyGly) | 1.26 | – |
| GlyIleAsnHisGly (GINHG; printed: GlyIleAsnHisGly) | 11.5 | – |
| GlyIleAsnIleGly (GINIG; printed: GlyIleAsnIleGly) | 384 | – |
| GlyIleAsnLeuGly (GINLG; printed: GlyIleAsnLeuGly) | 154 | – |
| GlyIleAsnLysGly (GINKG; printed: GlyIleAsnLysGly) | 64.4 | – |
| GlyIleAsnMetGly (GINMG; printed: GlyIleAsnMetGly) | 58.8 | – |
| GlyIleAsnPheGly (GINFG; printed: GlyIleAsnPheGly) | 61.5 | – |

| Substance | First-Order Deamidation Halftimes of GlyXxxAsnYyyGly [days] | First-Order Deamidation Halftimes of GlyXxxGlnYyyGly [days] |
| --- | --- | --- |
| GlyIleAsnProGly (GINPG; printed: GlyIleAsnProGly) | 11600 | – |
| GlyIleAsnSerGly (GINSG; printed: GlyIleAsnSerGly) | 14.5 | – |
| GlyIleAsnThrGly (GINTG; printed: GlyIleAsnThrGly) | 46.3 | – |
| GlyIleAsnTrpGly (GINWG; printed: GlyIleAsnTrpGly) | 86.7 | – |
| GlyIleAsnTyrGly (GINYG; printed: GlyIleAsnTyrGly) | 79.3 | – |
| GlyIleAsnValGly (GINVG; printed: GlyIleAsnValGly) | 295 | – |
| GlyIleGlnAlaGly (GIQAG; printed: GlyIleGlnAlaGly) | – | 6200 |
| GlyIleGlnArgGly (GIQRG; printed: GlyIleGlnArgGly) | – | 7200 |
| GlyIleGlnAspGly (GIQDG; printed: GlyIleGlnAspGly) | – | 8100 |
| GlyIleGlnCysGly (GIQCG; printed: GlyIleGlnCysGly) | – | 2000 |
| GlyIleGlnGluGly (GIQEG; printed: GlyIleGlnGluGly) | – | 7700 |
| GlyIleGlnGlyGly (GIQGG; printed: GlyIleGlnGlyGly) | – | 620 |
| GlyIleGlnHisGly (GIQHG; printed: GlyIleGlnHisGly) | – | 6100 |
| GlyIleGlnIleGly (GIQIG; printed: GlyIleGlnIleGly) | – | 6500 |
| GlyIleGlnLeuGly (GIQLG; printed: GlyIleGlnLeuGly) | – | 6300 |
| GlyIleGlnLysGly (GIQKG; printed: GlyIleGlnLysGly) | – | 6100 |
| GlyIleGlnMetGly (GIQMG; printed: GlyIleGlnMetGly) | – | 5100 |
| GlyIleGlnPheGly (GIQFG; printed: GlyIleGlnPheGly) | – | 8100 |
| GlyIleGlnProGly (GIQPG; printed: GlyIleGlnProGly) | – | 10000 |
| GlyIleGlnSerGly (GIQSG; printed: GlyIleGlnSerGly) | – | 5800 |
| GlyIleGlnThrGly (GIQTG; printed: GlyIleGlnThrGly) | – | 5300 |
| GlyIleGlnTrpGly (GIQWG; printed: GlyIleGlnTrpGly) | – | 16000 |
| GlyIleGlnTyrGly (GIQYG; printed: GlyIleGlnTyrGly) | – | 12000 |

From patent publication US20050118674A1, “Engineering of Controlled Deamidation Rates in Peptides, Proteins, and Similar Structures” (priority 2003, published 2005)
